Results published in patent publication US20160039904A1, “STABILIZED SINGLE HUMAN CD4 DOMAINS AND FUSION PROTEINS” (priority 2013, published 2016).

How the values were obtained:
Experiment in all cases: cell-based or functional assay
[1] = molecular target: HIV-1 Env of isolate CNE9 (HIV-1)
[2] = molecular target: HIV-1 Env of isolate CNE16 (HIV-1)
[3] = molecular target: HIV-1 Env of isolate CNE57 (HIV-1)
[4] = molecular target: HIV-1 Env of isolate CH64 (HIV-1)
[5] = molecular target: HIV-1 Env of isolate CNE30 (HIV-1)
[6] = molecular target: HIV-1 Env of isolate CNE20 (HIV-1)
[7] = molecular target: HIV-1 Env of isolate YN192.31 (HIV-1)
[8] = molecular target: HIV-1 Env of isolate GX2010.36 (HIV-1)
[9] = molecular target: HIV-1 Env of isolate AE20 (HIV-1)
[10] = molecular target: HIV-1 Env of isolate CNE65 (HIV-1)
[11] = molecular target: HIV-1 Env of isolate CNE47 (HIV-1)
[12] = molecular target: HIV-1 Env of isolate CNE1 (HIV-1)
[13] = molecular target: HIV-1 Env of isolate CNE46 (HIV-1)
[14] = molecular target: HIV-1 Env of isolate CNE4 (HIV-1)
[15] = molecular target: HIV-1 Env of isolate CNE107 (HIV-1)
[16] = molecular target: HIV-1 Env of isolate AE03 (HIV-1)
[17] = molecular target: HIV-1 Env of isolate CNE17 (HIV-1)
[18] = molecular target: HIV-1 Env of isolate CNE64 (HIV-1)
[19] = molecular target: HIV-1 Env of isolate CNE49 (HIV-1)
[20] = molecular target: HIV-1 Env of isolate CH70 (HIV-1)
[21] = molecular target: HIV-1 Env of isolate CH119 (HIV-1)
[22] = molecular target: HIV-1 Env of isolate CNE15 (HIV-1)
[23] = molecular target: HIV-1 Env of isolate CNE58 (HIV-1)
[24] = molecular target: HIV-1 Env of isolate CNE7 (HIV-1)
[25] = molecular target: HIV-1 Env of isolate CH120 (HIV-1)
[26] = molecular target: HIV-1 Env of isolate CNE53 (HIV-1)
[27] = molecular target: HIV-1 Env of isolate CNE55 (HIV-1)
[28] = molecular target: HIV-1 Env of isolate CNE3 (HIV-1)
[29] = molecular target: HIV-1 Env of isolate CH114 (HIV-1)
[30] = molecular target: HIV-1 Env of isolate CNE59 (HIV-1)
[31] = molecular target: HIV-1 Env of isolate CNE14 (HIV-1)
[32] = molecular target: HIV-1 Env of isolate CH117 (HIV-1)
[33] = molecular target: HIV-1 Env of isolate CH110 (HIV-1)
[34] = molecular target: HIV-1 Env of isolate CH91 (HIV-1)
[35] = molecular target: HIV-1 Env of isolate CNE23 (HIV-1)
[36] = molecular target: HIV-1 Env of isolate CNE6 (HIV-1)
[37] = molecular target: HIV-1 Env of isolate CNE40 (HIV-1)
[38] = molecular target: HIV-1 Env of isolate CNE66 (HIV-1)
[39] = molecular target: HIV-1 Env of isolate CNE11 (HIV-1)
[40] = molecular target: HIV-1 Env of isolate CNE5 (HIV-1)
[41] = molecular target: HIV-1 Env of isolate CNE68 (HIV-1)

## C34 (peptide)
[1]
  neutralization IC50: 0.87 nM
  neutralization IC90: 5.8 nM
[2]
  neutralization IC50: 11 nM
  neutralization IC90: 51 nM
[3]
  neutralization IC50: 2 nM
  neutralization IC90: 14 nM
[4]
  neutralization IC50: 1.2 nM
  neutralization IC90: 6.7 nM
[5]
  neutralization IC50: 14 nM
  neutralization IC90: 110 nM
[6]
  neutralization IC50: 3.3 nM
  neutralization IC90: 14 nM
[7]
  neutralization IC50: 27 nM
  neutralization IC90: 225 nM
[8]
  neutralization IC50: 15 nM
  neutralization IC90: 165 nM
[9]
  neutralization IC50: 7.4 nM
  neutralization IC90: 69 nM
[10]
  neutralization IC50: 3.1 nM
  neutralization IC90: 16 nM
[11]
  neutralization IC50: 1.9 nM
  neutralization IC90: 14 nM
[12]
  neutralization IC50: 0.73 nM
  neutralization IC90: 6.8 nM
[13]
  neutralization IC50: 6.4 nM
  neutralization IC90: 115 nM
[14]
  neutralization IC50: 6.3 nM
  neutralization IC90: 23 nM
[15]
  neutralization IC50: 2.8 nM
  neutralization IC90: 32 nM
[16]
  neutralization IC50: 24 nM
  neutralization IC90: 85 nM
[17]
  neutralization IC50: 3.2 nM
  neutralization IC90: 82 nM
[18]
  neutralization IC50: 5.1 nM
  neutralization IC90: 21 nM
[19]
  neutralization IC50: 2.3 nM
  neutralization IC90: 12 nM
[20]
  neutralization IC50: 7.6 nM
  neutralization IC90: 84 nM
[21]
  neutralization IC50: 3.3 nM
  neutralization IC90: 20 nM
[22]
  neutralization IC50: 3.8 nM
  neutralization IC90: 22 nM
[23]
  neutralization IC50: 2 nM
  neutralization IC90: 13 nM
[24]
  neutralization IC50: 6.4 nM
  neutralization IC90: 22 nM
[25]
  neutralization IC50: 4.6 nM
  neutralization IC90: 39 nM
[26]
  neutralization IC50: 2 nM
  neutralization IC90: 23 nM
[27]
  neutralization IC50: 7.9 nM
  neutralization IC90: 103 nM
[28]
  neutralization IC50: 7.1 nM
  neutralization IC90: 71 nM
[29]
  neutralization IC50: 5.4 nM
  neutralization IC90: 25 nM
[30]
  neutralization IC50: 3.4 nM
  neutralization IC90: 28 nM
[31]
  neutralization IC50: 3.9 nM
  neutralization IC90: 17 nM
[32]
  neutralization IC50: 0.6 nM
  neutralization IC90: 3.2 nM
[33]
  neutralization IC50: 0.78 nM
  neutralization IC90: 6.3 nM
[34]
  neutralization IC50: 2.3 nM
  neutralization IC90: 12 nM
[35]
  neutralization IC50: 2.1 nM
  neutralization IC90: 18 nM
[36]
  neutralization IC50: 1.6 nM
  neutralization IC90: 15 nM
[37]
  neutralization IC50: 0.77 nM
  neutralization IC90: 7.8 nM
[38]
  neutralization IC50: 2.1 nM
  neutralization IC90: 11 nM
[39]
  neutralization IC50: 4.6 nM
  neutralization IC90: 42 nM
[40]
  neutralization IC50: 5.9 nM
  neutralization IC90: 63 nM
[41]
  neutralization IC50: 2.2 nM
  neutralization IC90: 12 nM

## 4Dm2m (Fc fusion)
[1]
  neutralization IC50: 0.22 nM
  neutralization IC90: 3.2 nM
[2]
  neutralization IC50: 0.08 nM
  neutralization IC90: 1.2 nM
[3]
  neutralization IC50: 1.2 nM
  neutralization IC90: 19 nM
[4]
  neutralization IC50: 0.17 nM
  neutralization IC90: 1.6 nM
[5]
  neutralization IC50: 0.07 nM
  neutralization IC90: 0.44 nM
[6]
  neutralization IC50: 0.05 nM
  neutralization IC90: 5.3 nM
[7]
  neutralization IC50: 0.89 nM
  neutralization IC90: 21 nM
[8]
  neutralization IC50: 0.11 nM
  neutralization IC90: 18 nM
[9]
  neutralization IC50: 0.72 nM
  neutralization IC90: 5.8 nM
[10]
  neutralization IC50: 0.28 nM
  neutralization IC90: 3.3 nM
[11]
  neutralization IC50: 0.11 nM
  neutralization IC90: 2.8 nM
[12]
  neutralization IC50: 0.11 nM
  neutralization IC90: 0.61 nM
[13]
  neutralization IC50: 0.27 nM
  neutralization IC90: 9.4 nM
[14]
  neutralization IC50: 0.11 nM
  neutralization IC90: 2.4 nM
[15]
  neutralization IC50: 0.52 nM
  neutralization IC90: 18 nM
[16]
  neutralization IC50: 0.67 nM
  neutralization IC90: 12 nM
[17]
  neutralization IC50: 0.11 nM
  neutralization IC90: 2.4 nM
[18]
  neutralization IC50: 0.56 nM
  neutralization IC90: 3.2 nM
[19]
  neutralization IC50: 0.05 nM
  neutralization IC90: 0.56 nM
[20]
  neutralization IC50: 0.11 nM
  neutralization IC90: 1.2 nM
[21]
  neutralization IC50: 0.17 nM
  neutralization IC90: 3.4 nM
[22]
  neutralization IC50: 0.29 nM
  neutralization IC90: 2.6 nM
[23]
  neutralization IC50: 2.1 nM
  neutralization IC90: > 28 nM
[24]
  neutralization IC50: 0.18 nM
  neutralization IC90: 1.8 nM
[25]
  neutralization IC50: 0.33 nM
  neutralization IC90: 6.6 nM
[26]
  neutralization IC50: 0.24 nM
  neutralization IC90: 5.5 nM
[27]
  neutralization IC50: 0.45 nM
  neutralization IC90: 10 nM
[28]
  neutralization IC50: 0.39 nM
  neutralization IC90: 2.8 nM
[29]
  neutralization IC50: 0.11 nM
  neutralization IC90: 4 nM
[30]
  neutralization IC50: 0.17 nM
  neutralization IC90: 2.7 nM
[31]
  neutralization IC50: 0.17 nM
  neutralization IC90: 2.4 nM
[32]
  neutralization IC50: 0.33 nM
  neutralization IC90: 15 nM
[33]
  neutralization IC50: 0.11 nM
  neutralization IC90: 0.83 nM
[34]
  neutralization IC50: 0.39 nM
  neutralization IC90: 10 nM
[35]
  neutralization IC50: 0.49 nM
  neutralization IC90: 4.9 nM
[36]
  neutralization IC50: 0.33 nM
  neutralization IC90: 2.3 nM
[37]
  neutralization IC50: 0.01 nM
  neutralization IC90: 0.11 nM
[38]
  neutralization IC50: 0.17 nM
  neutralization IC90: 7.7 nM
[39]
  neutralization IC50: 0.33 nM
  neutralization IC90: 2.6 nM
[40]
  neutralization IC50: 0.67 nM
  neutralization IC90: 8.7 nM
[41]
  neutralization IC50: 0.11 nM
  neutralization IC90: 0.78 nM
